In article PMC11402785, “Structural basis for activity switching in polymerases determining the fate of let-7 pre-miRNAs” (Nature Structural & Molecular Biology, 2024):

B1: pre-let-7g (structured_RNA)
RNA: UGAGGUAGUAGUUUGUACAGUUUGAGGGUCUAUGAUACCACCCGGUACAGGAGAUAACUGUACAGGCCACUGCCUUGC
B2: pre-let-7g_3'CY (structured_RNA)
RNA: UGAGGUAGUAGUUUGUACAGUUUGAGGGUCUAUGAUACCACCCGGUACAGGAGAUAACUGUACAGGCCACUGCCUUGC

Legend:
[1] = target: TUT7 (ZCCHC6);LIN28A (Homo sapiens;Homo sapiens, UniProt Q5VYS8;Q9H9Z2 1-1495;1-209, |); assay: cryo-EM; Zn2+; ternary conformation I, 3.81 A; EMSA: 20 mM HEPES pH 7.8, 100 mM NaCl, 2 mM CaCl2, 50 uM ZnCl2, 5% glycerol, 5 mM DTT, 0.5 mM UTP, RNase inhibitor, on ice 30 min; 0.1 uM RNA, 0.2 uM TUT, 0.3 uM LIN28A; native gel in 1x TBE at 4 C; conditions: protein: recombinant;recombinant; tags: N-term His6-GST (TEV cleavable), C-term twin-Strep;N-term His6-GST fusion; copies: 1;1; hairpin, 1 nt 3' overhang
[2] = target: T1, TUT4 (ZCCHC11);LIN28A (Homo sapiens;Homo sapiens, UniProt Q5TAX3;Q9H9Z2 254-1315;1-209, |); assay: cryo-EM; Zn2+; ternary capture state, 3.68 A; EMSA: 20 mM HEPES pH 7.8, 100 mM NaCl, 2 mM CaCl2, 50 uM ZnCl2, 5% glycerol, 5 mM DTT, 0.5 mM UTP, RNase inhibitor, on ice 30 min; 0.1 uM RNA, 0.2 uM TUT, 0.3 uM LIN28A; native gel in 1x TBE at 4 C; conditions: protein: recombinant;recombinant; tags: N-term His6-GST (TEV cleavable), C-term twin-Strep;N-term His6-GST fusion; copies: 1;1; hairpin, 1 nt 3' overhang
T1 sequence 1: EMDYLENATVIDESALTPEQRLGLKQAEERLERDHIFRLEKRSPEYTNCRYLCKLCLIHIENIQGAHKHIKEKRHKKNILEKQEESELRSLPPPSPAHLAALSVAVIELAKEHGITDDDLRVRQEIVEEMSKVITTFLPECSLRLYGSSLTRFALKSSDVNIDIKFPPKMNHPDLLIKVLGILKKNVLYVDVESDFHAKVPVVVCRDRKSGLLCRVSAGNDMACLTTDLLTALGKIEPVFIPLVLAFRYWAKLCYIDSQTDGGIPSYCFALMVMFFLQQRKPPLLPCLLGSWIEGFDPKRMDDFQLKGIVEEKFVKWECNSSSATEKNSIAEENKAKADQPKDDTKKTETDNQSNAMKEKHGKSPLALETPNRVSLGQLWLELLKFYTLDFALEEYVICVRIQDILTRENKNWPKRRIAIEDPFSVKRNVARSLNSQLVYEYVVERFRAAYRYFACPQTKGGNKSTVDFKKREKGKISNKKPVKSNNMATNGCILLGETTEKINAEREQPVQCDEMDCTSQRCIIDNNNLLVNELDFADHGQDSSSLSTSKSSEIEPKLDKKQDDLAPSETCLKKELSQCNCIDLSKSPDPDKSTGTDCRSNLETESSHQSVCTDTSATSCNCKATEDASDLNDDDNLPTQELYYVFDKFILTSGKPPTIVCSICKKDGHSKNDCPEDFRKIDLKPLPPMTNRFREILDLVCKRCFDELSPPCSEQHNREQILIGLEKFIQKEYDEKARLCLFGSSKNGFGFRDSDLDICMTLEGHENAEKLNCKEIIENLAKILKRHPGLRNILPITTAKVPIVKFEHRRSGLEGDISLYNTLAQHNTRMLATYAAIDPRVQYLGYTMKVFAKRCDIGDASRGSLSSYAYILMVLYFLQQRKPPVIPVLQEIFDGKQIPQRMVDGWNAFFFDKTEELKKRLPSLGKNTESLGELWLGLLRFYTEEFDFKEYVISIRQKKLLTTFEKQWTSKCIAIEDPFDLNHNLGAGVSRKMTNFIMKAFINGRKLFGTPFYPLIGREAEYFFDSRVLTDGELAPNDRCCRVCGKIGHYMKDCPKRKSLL
T1 sequence 2: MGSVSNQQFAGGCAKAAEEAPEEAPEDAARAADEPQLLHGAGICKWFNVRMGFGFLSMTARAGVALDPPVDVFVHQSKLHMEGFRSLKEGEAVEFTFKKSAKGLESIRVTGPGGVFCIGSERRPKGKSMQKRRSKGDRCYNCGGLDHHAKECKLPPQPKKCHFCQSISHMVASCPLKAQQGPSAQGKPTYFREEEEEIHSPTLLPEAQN

[3] = target: T1, TUT4 (ZCCHC11);LIN28A; assay: EMSA; 0.5 mM UTP, Ca2+, Zn2+; higher-order assemblies, concentration dependent; EMSA: 20 mM HEPES pH 7.8, 100 mM NaCl, 2 mM CaCl2, 50 uM ZnCl2, 5% glycerol, 5 mM DTT, 0.5 mM UTP, RNase inhibitor, on ice 30 min; 0.1 uM RNA, 0.2 uM TUT, 0.3 uM LIN28A; native gel in 1x TBE at 4 C; conditions: protein: recombinant;recombinant; tags: N-term His6-GST (TEV cleavable), C-term twin-Strep;N-term His6-GST fusion; copies: 1;1; label: 3' CY dye; hairpin, 1 nt 3' overhang
[4] = target: T2, TUT4 K919/K920 mutant (ZK1);LIN28A (Homo sapiens;Homo sapiens, UniProt Q5TAX3;Q9H9Z2 254-1315;1-209, K919A;K920A|); assay: EMSA; 0.5 mM UTP, Ca2+, Zn2+; higher-order assemblies seen; EMSA: 20 mM HEPES pH 7.8, 100 mM NaCl, 2 mM CaCl2, 50 uM ZnCl2, 5% glycerol, 5 mM DTT, 0.5 mM UTP, RNase inhibitor, on ice 30 min; 0.1 uM RNA, 0.2 uM TUT, 0.3 uM LIN28A; native gel in 1x TBE at 4 C; conditions: protein: recombinant;recombinant; tags: N-term His6-GST (TEV cleavable), C-term twin-Strep;N-term His6-GST fusion; copies: 1;1; label: 3' CY dye; hairpin, 1 nt 3' overhang
T2 sequence 1: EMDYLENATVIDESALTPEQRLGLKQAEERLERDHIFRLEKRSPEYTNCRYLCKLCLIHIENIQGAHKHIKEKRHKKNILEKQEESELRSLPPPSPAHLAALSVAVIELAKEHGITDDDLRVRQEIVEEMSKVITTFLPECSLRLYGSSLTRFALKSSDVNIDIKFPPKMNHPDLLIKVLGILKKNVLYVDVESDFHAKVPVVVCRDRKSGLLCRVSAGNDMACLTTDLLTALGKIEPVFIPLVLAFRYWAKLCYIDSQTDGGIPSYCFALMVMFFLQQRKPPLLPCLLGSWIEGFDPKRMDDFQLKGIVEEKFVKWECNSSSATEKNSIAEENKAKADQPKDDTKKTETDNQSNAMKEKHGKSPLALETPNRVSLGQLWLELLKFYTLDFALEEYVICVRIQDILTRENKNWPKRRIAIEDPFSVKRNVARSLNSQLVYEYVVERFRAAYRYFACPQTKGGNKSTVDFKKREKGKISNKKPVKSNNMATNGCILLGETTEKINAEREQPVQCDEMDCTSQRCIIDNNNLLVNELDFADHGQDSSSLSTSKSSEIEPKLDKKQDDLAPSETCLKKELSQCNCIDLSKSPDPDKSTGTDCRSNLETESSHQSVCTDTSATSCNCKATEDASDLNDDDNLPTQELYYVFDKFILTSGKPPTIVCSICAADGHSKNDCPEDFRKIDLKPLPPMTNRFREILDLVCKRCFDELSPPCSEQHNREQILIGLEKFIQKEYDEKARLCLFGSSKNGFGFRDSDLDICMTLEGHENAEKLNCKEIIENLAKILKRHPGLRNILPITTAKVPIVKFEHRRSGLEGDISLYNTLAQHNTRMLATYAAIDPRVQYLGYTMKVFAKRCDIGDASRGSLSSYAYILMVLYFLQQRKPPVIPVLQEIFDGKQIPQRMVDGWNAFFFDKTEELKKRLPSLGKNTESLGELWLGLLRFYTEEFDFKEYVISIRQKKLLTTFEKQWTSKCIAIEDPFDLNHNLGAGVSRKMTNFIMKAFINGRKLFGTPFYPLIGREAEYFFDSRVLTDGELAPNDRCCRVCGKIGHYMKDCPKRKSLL
T2 sequence 2: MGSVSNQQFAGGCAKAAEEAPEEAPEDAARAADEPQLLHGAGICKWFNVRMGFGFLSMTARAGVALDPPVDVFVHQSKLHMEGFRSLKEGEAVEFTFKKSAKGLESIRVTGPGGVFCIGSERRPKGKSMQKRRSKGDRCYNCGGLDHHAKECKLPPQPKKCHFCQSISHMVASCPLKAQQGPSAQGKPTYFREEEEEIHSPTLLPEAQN

Sequence of TUT7 (ZCCHC6);LIN28A (Q5VYS8 whole entry, the tested form may be a part, one chain of several): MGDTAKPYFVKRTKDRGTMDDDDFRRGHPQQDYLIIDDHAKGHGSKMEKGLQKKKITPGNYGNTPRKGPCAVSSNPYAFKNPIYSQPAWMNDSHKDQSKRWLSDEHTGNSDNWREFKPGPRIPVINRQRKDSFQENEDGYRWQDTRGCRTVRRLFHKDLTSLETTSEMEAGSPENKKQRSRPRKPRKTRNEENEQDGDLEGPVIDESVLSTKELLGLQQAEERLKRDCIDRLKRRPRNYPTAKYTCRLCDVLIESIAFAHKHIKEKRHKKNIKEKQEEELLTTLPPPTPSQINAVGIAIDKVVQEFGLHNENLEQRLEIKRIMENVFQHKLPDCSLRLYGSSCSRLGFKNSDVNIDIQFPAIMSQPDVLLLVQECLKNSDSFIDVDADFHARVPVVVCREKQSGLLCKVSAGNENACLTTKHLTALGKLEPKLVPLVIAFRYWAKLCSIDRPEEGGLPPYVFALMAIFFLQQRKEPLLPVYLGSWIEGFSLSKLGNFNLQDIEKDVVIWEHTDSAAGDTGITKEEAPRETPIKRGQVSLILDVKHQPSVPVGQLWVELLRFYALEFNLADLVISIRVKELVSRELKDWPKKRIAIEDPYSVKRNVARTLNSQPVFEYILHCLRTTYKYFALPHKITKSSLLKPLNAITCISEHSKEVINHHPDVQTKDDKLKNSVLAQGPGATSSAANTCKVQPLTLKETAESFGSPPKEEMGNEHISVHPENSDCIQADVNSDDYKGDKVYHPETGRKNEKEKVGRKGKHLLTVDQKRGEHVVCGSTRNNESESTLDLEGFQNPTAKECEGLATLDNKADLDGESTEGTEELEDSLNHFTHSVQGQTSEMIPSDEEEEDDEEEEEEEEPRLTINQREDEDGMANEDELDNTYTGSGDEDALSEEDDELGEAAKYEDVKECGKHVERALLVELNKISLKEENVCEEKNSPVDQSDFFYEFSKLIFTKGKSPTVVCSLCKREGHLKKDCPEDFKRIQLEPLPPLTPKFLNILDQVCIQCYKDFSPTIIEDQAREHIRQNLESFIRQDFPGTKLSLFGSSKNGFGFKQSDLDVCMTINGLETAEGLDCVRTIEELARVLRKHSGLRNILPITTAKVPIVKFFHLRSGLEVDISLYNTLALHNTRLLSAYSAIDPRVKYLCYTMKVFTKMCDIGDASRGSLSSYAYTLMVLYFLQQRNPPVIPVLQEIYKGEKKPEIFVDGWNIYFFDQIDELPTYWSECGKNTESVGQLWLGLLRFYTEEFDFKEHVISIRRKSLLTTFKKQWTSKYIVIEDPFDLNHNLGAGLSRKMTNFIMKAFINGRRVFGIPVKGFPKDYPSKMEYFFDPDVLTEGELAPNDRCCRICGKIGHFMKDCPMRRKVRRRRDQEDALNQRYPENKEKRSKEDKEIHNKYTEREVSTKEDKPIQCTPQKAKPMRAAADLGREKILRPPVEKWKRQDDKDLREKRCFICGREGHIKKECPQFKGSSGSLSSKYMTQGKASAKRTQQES

| Binder | binding result [1] | binding result [2] | binding result [3] | binding result [4] |
| --- | --- | --- | --- | --- |
| B1 | binds | binds |  |  |
| B2 |  |  | binds | binds |
